Three substances from US20250263697 can be followed below.

For data set [1], the system named is N (nucleocapsid) (SARS-CoV-2). As to conditions: eCLIP in infected Vero E6 cells.
For data set [2], the target named is NSP12 (RNA-dependent RNA polymerase) (SARS-CoV-2) (UniProt P0DTD1).
Data set [3] relates to NSP8 (primase) (SARS-CoV-2).

Turning to “SARS-CoV-2 genome 9602-9620, positive strand”, the binding signal in data set [1] worked out at 9.5 fold. “SARS-CoV-2 genome 7436-7526, positive strand” registered a binding signal in data set [2] of 13.7 fold. For the substance “SARS-CoV-2 genome 5' end, positive strand”, the binding signal in data set [2] turned out to be 573 fold; in data set [3], 107 fold.
